Changes are numbered by the printed parent chain. In names and notes the source's numbering stands.
Substrate: O=[N+]([O-])c1ccc(O[C@@H]2O[C@H](CO)[C@@H](O)[C@H](O)[C@H]2O)cc1
Assay: purified protein
[1] = enzyme storage buffer (HEPES elution buffer), ten biological replicates

B1: β-glucosidase B (BglB) (Paenibacillus polymyxa) (protein)
chain: MSENTFIFPATFMWGTSTSSYQIEGGTDEGGRTPSIWDTFCQIPGKVIGGDCGDVACDHFHHFKEDVQLMKQLGFLHYRFSVAWPRIMPAAGIINEEGLLFYEHLLDEIELAGLIPMLTLYHWDLPQWIEDEGGWTQRETIQHFKTYASVIMDRFGERINWWNTINEPYCASILGYGTGEHAPGHENWREAFTAAHHILMCHGIASNLHKEKGLTGKIGITLNMEHVDAASERPEDVAAAIRRDGFINRWFAEPLFNGKYPEDMVEWYGTYLNGLDFVQPGDMELIQQPGDFLGINYYTRSIIRSTNDASLLQVEQVHMEEPVTDMGWEIHPESFYKLLTRIEKDFSKGLPILITENGAAMRDELVNGQIEDTGRHGYIEEHLKACHRFIEEGGQLKGYFVWSFLDNFEWAWGYSKRFGIVHINYETQERTPKQSALWFKQMMAKNGF
- Km [1]: 5.0 ± 0.2 mM
- kcat [1]: 14.7 ± 0.167 s⁻¹

B2: β-glucosidase B (BglB) (Paenibacillus polymyxa; R243A) (protein)
chain: B1 chain with R243A
- Km (enzyme storage buffer): 19.46 ± 1.17 mM
- kcat (enzyme storage buffer): 184 s⁻¹
- kcat/Km (enzyme storage buffer): 9430 ± 606 M⁻¹ s⁻¹

B3: β-glucosidase B (BglB) (Paenibacillus polymyxa; E225A) (protein)
chain: B1 chain with E225A
- Km (enzyme storage buffer): 0.63 ± 0.15 mM
- kcat (enzyme storage buffer): 1.5 s⁻¹
- kcat/Km (enzyme storage buffer): 2390 ± 602 M⁻¹ s⁻¹
